Results taken from US20200164032A1 (WASHINGTON UNIVERSITY, published 2020).

Columns and labels:
human CCL2 [1] = target: T1, human CCL2 (human, UniProt P13500 24-99); assay: SPR, R17 on CM5 chip; KD,kin = kd/ka from the global fit
T1 construct: also called hCCL2

murine CCL20 [2] = target: T2, murine CCL20 (mouse, UniProt O89093 28-97); assay: as above
T2 construct: also called mCCL20
T2 sequence: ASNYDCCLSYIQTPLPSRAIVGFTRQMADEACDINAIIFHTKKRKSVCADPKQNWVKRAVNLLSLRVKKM

CCL9 [3] = target: T3, CCL9 (UniProt P51670 22-122); assay: as above
T3 sequence: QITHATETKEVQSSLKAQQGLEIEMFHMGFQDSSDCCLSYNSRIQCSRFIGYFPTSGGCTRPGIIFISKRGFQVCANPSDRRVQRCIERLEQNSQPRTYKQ

murine CCL12 [4] = target: T4, murine CCL12 (mouse, UniProt Q62401 23-104); assay: as above
T4 construct: also called mCCL12
T4 sequence: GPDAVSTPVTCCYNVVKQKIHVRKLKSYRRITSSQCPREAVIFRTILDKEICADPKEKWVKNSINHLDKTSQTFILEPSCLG

murine CCL8 [5] = target: T5, murine CCL8 (mouse, UniProt Q9Z121 24-97); assay: as above
T5 construct: also called mCCL8
T5 sequence: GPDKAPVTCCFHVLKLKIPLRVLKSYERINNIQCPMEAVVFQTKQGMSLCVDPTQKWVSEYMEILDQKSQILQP

murine CCL2 [6] = target: T6, murine CCL2 (mouse, UniProt P10148 24-148); assay: as above
T6 construct: also called mCCL2

human CCL2 [7] = target: T1, human CCL2; assay: SPR, R17 on CM5 chip, chemokine injected; global 1:1 mass transport fit
murine CCL20 [8] = target: T2, murine CCL20; assay: as above
CCL9 [9] = target: T3, CCL9; assay: as above
murine CCL12 [10] = target: T4, murine CCL12; assay: as above
murine CCL8 [11] = target: T5, murine CCL8; assay: as above
murine CCL2 [12] = target: T6, murine CCL2; assay: as above
[13] = target: CCL2 (species not given); assay: SPR, R17 variant on CM5 chip; column kd x 10^-3 s-1
[14] = target: CCL3 (species not given); assay: SPR, R17 variant on CM5 chip; column KDeq (nM); ka, kd, KD printed n/a
murine CCL11 = target: T7, murine CCL11 (mouse, UniProt P48298 24-97); assay: SPR, R17 amine-coupled to CM5 chip
T7 sequence: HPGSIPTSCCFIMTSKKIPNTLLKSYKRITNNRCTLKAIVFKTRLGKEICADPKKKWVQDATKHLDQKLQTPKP

murine CCL19 = target: T8, murine CCL19 (mouse, UniProt O70460 26-108); assay: SPR, R17 amine-coupled to CM5 chip
T8 construct: also called mCCL19
T8 sequence: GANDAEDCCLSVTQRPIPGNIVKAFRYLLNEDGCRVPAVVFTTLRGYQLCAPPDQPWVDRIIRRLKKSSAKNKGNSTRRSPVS

[15] = target: T9, murine XCL1 (lymphotactin) (mouse, UniProt P47993 22-114); assay: SPR, R17 amine-coupled to CM5 chip
T9 construct: also called mXCL1; lymphotactin (XCL1)
T9 sequence: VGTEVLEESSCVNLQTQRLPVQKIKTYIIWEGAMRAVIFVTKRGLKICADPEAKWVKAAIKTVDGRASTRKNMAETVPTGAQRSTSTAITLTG

murine CCL3 = target: T10, murine CCL3 (mouse, UniProt P10855 24-92); assay: SPR, R17 amine-coupled to CM5 chip
T10 construct: also called mCCL3
T10 sequence: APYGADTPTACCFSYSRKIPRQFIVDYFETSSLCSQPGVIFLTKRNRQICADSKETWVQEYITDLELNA

murine CCL5 = target: T11, murine CCL5 (mouse, UniProt P30882 24-91); assay: SPR, R17 amine-coupled to CM5 chip
T11 construct: also called mCCL5

human CCL3 = target: T12, human CCL3 (human, UniProt P10147 23-92); assay: SPR, R17 amine-coupled to CM5 chip
T12 construct: also called hCCL3
T12 sequence: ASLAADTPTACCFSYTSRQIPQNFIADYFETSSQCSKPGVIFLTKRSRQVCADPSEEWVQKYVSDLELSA

murine CCL4 = target: T13, murine CCL4 (mouse, UniProt P14097 24-92); assay: SPR, R17 amine-coupled to CM5 chip
T13 construct: also called mCCL4
T13 sequence: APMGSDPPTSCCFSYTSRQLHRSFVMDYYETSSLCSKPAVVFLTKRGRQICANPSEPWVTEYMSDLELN

human CCL5 = target: T14, human CCL5 (human, UniProt P13501 24-91); assay: SPR, R17 amine-coupled to CM5 chip
T14 construct: also called hCCL5
T14 sequence: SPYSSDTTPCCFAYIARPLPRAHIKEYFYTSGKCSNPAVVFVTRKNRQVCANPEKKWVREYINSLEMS

[16] = target: CCL2 (species not given); assay: SPR, R17 variant on CM5 chip; column ka x 10^6 M-1s-1

T1 sequence (P13500 24-99 limits assumed): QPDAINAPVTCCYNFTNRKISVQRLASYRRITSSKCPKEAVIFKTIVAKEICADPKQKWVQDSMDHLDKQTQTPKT
T6 sequence (P10148 24-148 limits assumed): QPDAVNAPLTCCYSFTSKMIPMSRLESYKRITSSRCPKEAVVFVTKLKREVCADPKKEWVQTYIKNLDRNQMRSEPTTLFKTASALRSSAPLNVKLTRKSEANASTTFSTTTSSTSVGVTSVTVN
T11 sequence (P30882 24-91 limits assumed): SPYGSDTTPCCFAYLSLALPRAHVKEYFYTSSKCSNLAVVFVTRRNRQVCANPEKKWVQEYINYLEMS

B1: R17 chemokine decoy receptor of Rodent herpesvirus Peru (RHVP), wild type, C-terminal 8-His fusion (receptor)
chain: GPVGEPVASEINEASKVSSRLLTQDILFRKDRQATISLPIKLPVEDIITQTCDKITYGPLKFLDLLEKETAVLPLSTDITCPACLGRAVLVGKWECPAHVAVNESDLTVFGPNKEEHVPQFVTVQQPSDGKMQRLFFAKFLGTEESLAVLRVPGPDGHLCIQEALIHFKELSGAGVCSLWKANDSREEGLEMKQVDCLETTVLENQTCIATTLSKKIYHRLYCGERLMTGGQVSTRVLLTALGFYKRQPYTFHRVPKGMVYVHLIDSGSEDYMEYSECEEVTPGRYEDKQISYTFYTDLFQTADGEPVLASVWGTSGLKDSAYESCAFVIPTKGRRKLVPRRIMSKCYPFRLTYHPSTMTVRLDVRVEKHHGATDQGFVFLKMESGTYSEGREYYLDRVLWGEDSSTNNVLQ
notes: not shown: C-terminal 8-His tag
For B1, the Kd (human CCL2 [1]) was 7.5 nM, the Kd (murine CCL20 [2]) was 4.7 nM and the Kd (CCL9 [3]) was 4.5 nM. For the same binder, the Kd (murine CCL12 [4]) was 1.1 nM, the Kd (murine CCL8 [5]) was 76 nM and the Kd (murine CCL2 [6]) was 6.7 nM. The koff (human CCL2 [7]) was 0.012 s⁻¹, the kon (human CCL2 [7]) was 1e+06 M⁻¹ s⁻¹ and the koff (murine CCL20 [8]) was 0.031 s⁻¹. It also gave a kon (murine CCL20 [8]) of 6.5e+06 M⁻¹ s⁻¹, a koff (CCL9 [9]) of 0.01 s⁻¹ and a kon (CCL9 [9]) of 3.6e+06 M⁻¹ s⁻¹. It also gave a koff (murine CCL12 [10]) of 0.01 s⁻¹, a kon (murine CCL12 [10]) of 8.9e+06 M⁻¹ s⁻¹ and a koff (murine CCL8 [11]) of 0.1 s⁻¹. It also gave a kon (murine CCL8 [11]) of 1.3e+06 M⁻¹ s⁻¹, a koff (murine CCL2 [12]) of 0.02 s⁻¹ and a kon (murine CCL2 [12]) of 2e+06 M⁻¹ s⁻¹. For the same binder, the koff [13] was 0.02 s⁻¹, the Kd [14] was 0.4 nM and the binding result (murine CCL11) was “binds”. The binding result (murine CCL19) was “binds”, the “dissociation time of the complex” value [15] was over 10 min and the “dissociation time of the complex” value (murine CCL3) was over 10 min. For the same binder, the “dissociation time of the complex” value (murine CCL5) was over 10 min, the “dissociation time of the complex” value (human CCL3) was over 10 min and the “dissociation time of the complex” value (murine CCL4) was over 10 min. For the same binder, the “dissociation time of the complex” value (human CCL5) was over 10 min and the kon [16] was 2e+06 M⁻¹ s⁻¹.
